In patent US20120316071A1 (published 2012):
Substitutions are numbered along the chain they refer to. Numbers in names are those of the source. Each block holds one binder with its values, some of them ahead of it.

What was measured:
[1] = target: T1, rHuman ErbB2/Fc Chimera, CF (R&D Systems Cat#1129-ER) (human, UniProt P04626 23-652); assay: ECL multispot (MSD) assay, antigen spotted on plate; blank spot of this row 327
T1 construct: Bought recombinant protein; also called human epidermal growth factor 2 receptor; Fc part of the bought chimera not given

[2] = target: T2, rHuman Erythropoietin R/Fc Chimera, CF (R&D Systems Cat#963-ER) (human, UniProt P19235 25-250); assay: as above
T2 construct: Bought recombinant protein; also called EPO R; EPO R/Fc; Fc part of the bought chimera not given
T2 sequence (looked up): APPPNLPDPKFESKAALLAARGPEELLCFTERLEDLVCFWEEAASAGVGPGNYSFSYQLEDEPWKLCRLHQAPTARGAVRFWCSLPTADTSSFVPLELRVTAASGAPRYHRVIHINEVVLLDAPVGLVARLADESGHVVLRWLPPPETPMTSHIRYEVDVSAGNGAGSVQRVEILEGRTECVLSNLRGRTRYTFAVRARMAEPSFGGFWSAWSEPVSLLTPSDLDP

[3] = target: T3, rHuman P-Cadherin/Fc Chimera, CF (R&D Systems Cat#861-PC) (human, UniProt P22223 108-654); assay: as above
T3 construct: Bought recombinant protein; Fc part of the bought chimera not given

[4] = target: T4, rHuman HGF R/c-MET/Fc Chimera, CF (R&D Systems Cat#358-MT/CF) (human, UniProt P08581 25-932); assay: as above
T4 construct: Bought recombinant protein; also called HGF R/Fc; hepatocyte growth factor receptor; Fc part of the bought chimera not given

[5] = target: T5, rHuman IGF-1 sR, (IGF-1 sR), CF (R&D Systems Cat#391-GR) (human, UniProt P08069 31-932); assay: as above
T5 construct: Bought recombinant soluble receptor; also called insulin-like growth factor-1 soluble receptor

[6] = target: T6, rHuman CD44/Fc Chimera, CF (R&D Systems Cat#3660-CD) (human, UniProt P16070 21-220); assay: as above
T6 construct: Bought recombinant protein; Fc part of the bought chimera not given

[7] = target: T7, rHuman Notch-1/Fc Chimera, CF (R&D Systems Cat#3647-TK) (human, UniProt P46531 19-526); assay: as above
T7 construct: Bought recombinant protein; Fc part of the bought chimera not given

[8] = target: T8, rHuman EGF R/Fc Chimera, CF (R&D Systems Cat#344-ER) (human, UniProt P00533 25-645); assay: as above
T8 construct: Bought recombinant protein; also called epidermal growth factor receptor; Fc part of the bought chimera not given

[9] = target: T9, Recombinant Human DLL4 (R&D Systems Cat#1506-D4/CF) (human, UniProt Q9NR61 27-524); assay: as above
T9 construct: Bought recombinant protein; also called delta-like protein 4; rHuman DLL4

[10] = target: T1, rHuman ErbB2/Fc Chimera, CF (R&D …); assay: ECL multispot (MSD) assay, antigen spotted on plate; blank spot of this row 278
[11] = target: T2, rHuman Erythropoietin R/Fc Chimera, CF …; assay: as above
[12] = target: T3, rHuman P-Cadherin/Fc Chimera, CF (R&D …); assay: as above
[13] = target: T4, rHuman HGF R/c-MET/Fc Chimera, CF (R&D …); assay: as above
[14] = target: T5, rHuman IGF-1 sR, (IGF-1 sR), CF (R&D …); assay: as above
[15] = target: T6, rHuman CD44/Fc Chimera, CF (R&D Systems …); assay: as above
[16] = target: T7, rHuman Notch-1/Fc Chimera, CF (R&D …); assay: as above
[17] = target: T8, rHuman EGF R/Fc Chimera, CF (R&D …); assay: as above
[18] = target: T9, Recombinant Human DLL4 (R&D Systems …); assay: as above
[19] = target: T1, rHuman ErbB2/Fc Chimera, CF (R&D …); assay: ECL multispot (MSD) assay, antigen spotted on plate; blank spot
[20] = target: T2, rHuman Erythropoietin R/Fc Chimera, CF …; assay: as above
[21] = target: T3, rHuman P-Cadherin/Fc Chimera, CF (R&D …); assay: as above
[22] = target: T4, rHuman HGF R/c-MET/Fc Chimera, CF (R&D …); assay: as above
[23] = target: T5, rHuman IGF-1 sR, (IGF-1 sR), CF (R&D …); assay: as above
[24] = target: T6, rHuman CD44/Fc Chimera, CF (R&D Systems …); assay: as above
[25] = target: T7, rHuman Notch-1/Fc Chimera, CF (R&D …); assay: as above
[26] = target: T8, rHuman EGF R/Fc Chimera, CF (R&D …); assay: as above
[27] = target: T9, Recombinant Human DLL4 (R&D Systems …); assay: as above
[28] = target: T1, rHuman ErbB2/Fc Chimera, CF (R&D …); assay: ECL multispot (MSD) assay, antigen spotted on plate; blank spot of this row 392
[29] = target: T2, rHuman Erythropoietin R/Fc Chimera, CF …; assay: as above
[30] = target: T3, rHuman P-Cadherin/Fc Chimera, CF (R&D …); assay: as above
[31] = target: T4, rHuman HGF R/c-MET/Fc Chimera, CF (R&D …); assay: as above
[32] = target: T5, rHuman IGF-1 sR, (IGF-1 sR), CF (R&D …); assay: as above
[33] = target: T6, rHuman CD44/Fc Chimera, CF (R&D Systems …); assay: as above
[34] = target: T7, rHuman Notch-1/Fc Chimera, CF (R&D …); assay: as above
[35] = target: T8, rHuman EGF R/Fc Chimera, CF (R&D …); assay: as above
[36] = target: T9, Recombinant Human DLL4 (R&D Systems …); assay: as above

T4 sequence (P08581 25-932, change not shown): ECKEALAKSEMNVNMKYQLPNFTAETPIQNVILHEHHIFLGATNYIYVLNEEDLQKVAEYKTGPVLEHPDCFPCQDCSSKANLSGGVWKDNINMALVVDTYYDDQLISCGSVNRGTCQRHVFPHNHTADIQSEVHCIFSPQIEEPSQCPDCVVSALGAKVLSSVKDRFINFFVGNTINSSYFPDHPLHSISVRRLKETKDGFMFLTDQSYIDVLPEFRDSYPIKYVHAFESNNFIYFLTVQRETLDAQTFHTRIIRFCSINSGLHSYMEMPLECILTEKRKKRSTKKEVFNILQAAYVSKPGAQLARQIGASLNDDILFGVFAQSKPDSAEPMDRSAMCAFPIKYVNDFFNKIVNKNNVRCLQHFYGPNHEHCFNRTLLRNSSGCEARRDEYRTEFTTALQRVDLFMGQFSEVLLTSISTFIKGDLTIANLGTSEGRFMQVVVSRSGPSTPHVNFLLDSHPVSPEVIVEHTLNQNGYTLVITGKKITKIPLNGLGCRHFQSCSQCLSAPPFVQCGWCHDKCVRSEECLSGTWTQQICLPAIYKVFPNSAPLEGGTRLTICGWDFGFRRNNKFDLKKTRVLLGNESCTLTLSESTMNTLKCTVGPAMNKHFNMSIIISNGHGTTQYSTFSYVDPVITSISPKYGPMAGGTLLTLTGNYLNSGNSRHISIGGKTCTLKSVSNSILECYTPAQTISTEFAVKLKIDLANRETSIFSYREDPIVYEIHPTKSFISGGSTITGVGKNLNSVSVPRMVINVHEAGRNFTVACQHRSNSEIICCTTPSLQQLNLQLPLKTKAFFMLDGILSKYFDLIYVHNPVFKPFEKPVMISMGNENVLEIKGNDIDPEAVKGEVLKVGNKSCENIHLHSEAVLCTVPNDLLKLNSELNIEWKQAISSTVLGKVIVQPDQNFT

B1: Fab VH1-46_IGHD6-6*01_IGHJ1*01 S102A/S103P/S104F/H111F (APFF) & L6_IGKJ1*01 S30Q (Fab, V domains shown)
VH: QVQLVQSGAEVKKPGASVKVSCKASGYTFTSYYMHWVRQAPGQGLEWMGIINPSGGSTSYAQKFQGRVTMTRDTSTSTVYMELSSLRSEDTAVYYCAREEYAPFSAEYFQFWGQGTLVTVSS
VL: EIVLTQSPATLSLSPGERATLSCRASQSVQSYLAWYQQKPGQAPRLLIYDASNRATGIPARFSGSGSGTDFTLTISSLEPEDFAVYYCQQRSNWPPWTFGQGTKVEIKR
notes: Fab made in E. coli: VH cloned into Plasmid A (CH1, His6 and Flag tags), kappa VL into Plasmid C (kappa CL); also called APFF / S30Q
- ECL signal [1]: 340
- ECL signal [2]: 376
- ECL signal [3]: 393
- ECL signal [4]: 344
- ECL signal [5]: 354
- ECL signal [6]: 411
- ECL signal [7]: 326
- ECL signal [8]: 381
- ECL signal [9]: 197000

B2: Fab VH1-46_IGHD6-6*01_IGHJ1*01 S102A/S103P/S104F/H111F (APFF) & L6_IGKJ1*01 S30R (Fab, V domains shown)
VH: B1 VH
VL: B1 VL with Q30R
notes: Fab made in E. coli: VH cloned into Plasmid A (CH1, His6 and Flag tags), kappa VL into Plasmid C (kappa CL); also called APFF / S30R
- ECL signal [10]: 404
- ECL signal [11]: 525
- ECL signal [12]: 442
- ECL signal [13]: 452
- ECL signal [14]: 422
- ECL signal [15]: 472
- ECL signal [16]: 313
- ECL signal [17]: 395
- ECL signal [18]: 189000

Now from value to binder:

- ECL signal [19]: 279
- ECL signal [20]: 536
- ECL signal [21]: 333
- ECL signal [22]: 394
- ECL signal [23]: 365
- ECL signal [24]: 375
- ECL signal [25]: 294
- ECL signal [26]: 412
- ECL signal [27]: 141000
B3: Fab VH1-46_IGHD6-6*01_IGHJ1*01 S102A/S103P/S104F/H111F (APFF) & L6_IGKJ1*01 S30V (Fab, V domains shown)
VH: B1 VH
VL: B1 VL with Q30V
notes: Fab made in E. coli: VH cloned into Plasmid A (CH1, His6 and Flag tags), kappa VL into Plasmid C (kappa CL); also called APFF / S30V

- ECL signal [28]: 269
- ECL signal [29]: 470
- ECL signal [30]: 418
- ECL signal [31]: 320
- ECL signal [32]: 401
- ECL signal [33]: 521
- ECL signal [34]: 375
- ECL signal [35]: 383
- ECL signal [36]: 136000
B4: Fab VH1-46_IGHD6-6*01_IGHJ1*01 S102A/S103P/S104F/H111F (APFF) & L6_IGKJ1*01 S30T (Fab, V domains shown)
VH: B1 VH
VL: B1 VL with Q30T
notes: Fab made in E. coli: VH cloned into Plasmid A (CH1, His6 and Flag tags), kappa VL into Plasmid C (kappa CL); also called APFF / S30T
